Data set [1] concerns the target T1, Cas1-Cas2 complex (Escherichia coli, UniProt Q46896;P45956 1-305;1-94).
T1 sequence 1: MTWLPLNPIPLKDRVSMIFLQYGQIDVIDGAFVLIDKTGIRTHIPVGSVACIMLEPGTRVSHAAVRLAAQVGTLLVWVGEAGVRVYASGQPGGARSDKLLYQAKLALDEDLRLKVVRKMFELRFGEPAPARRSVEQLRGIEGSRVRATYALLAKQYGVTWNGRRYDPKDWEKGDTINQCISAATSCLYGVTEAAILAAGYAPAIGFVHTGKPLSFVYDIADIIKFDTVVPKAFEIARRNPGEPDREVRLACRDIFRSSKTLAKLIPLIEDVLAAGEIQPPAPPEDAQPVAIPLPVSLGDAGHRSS
T1 sequence 2: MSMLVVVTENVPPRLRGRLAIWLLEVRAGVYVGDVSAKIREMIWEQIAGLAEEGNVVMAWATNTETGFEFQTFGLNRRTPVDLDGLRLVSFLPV
Description: EMSA; no Mg2+ added; EMSA: 20 nM DNA, 0-500 nM Cas1-Cas2, 20 mM Tris-HCl pH 8.0, BSA 100 (ug/ml), 7% glycerol, 37 C 30 min; 5% acrylamide TBE gel. The conditions noted are these: protein: recombinant, tags: Cas1 N-terminal His6, Cas2 untagged, chain copies: 4;2, label: 5'-Cy5 on strand 1, 10 bp duplex. Background: Mobility shift assays separate free from complexed probe on a gel.

Data set [2] has as its target T1, Cas1-Cas2 complex. Description: EMSA; no Mg2+ added; up to 500 nM; EMSA: 20 nM DNA, 0-500 nM Cas1-Cas2, 20 mM Tris-HCl pH 8.0, BSA 100 (ug/ml), 7% glycerol, 37 C 30 min; 5% acrylamide TBE gel. The conditions noted are these: protein: recombinant; tags: Cas1 N-terminal His6; Cas2 untagged; chain copies: 4;2; label: 5'-Cy5 on strand 1; blunt.
Data set [3] has as its target T1, Cas1-Cas2 complex. Description: EMSA; no Mg2+ added; complex formation improved over DNA-10; EMSA: 20 nM DNA, 0-500 nM Cas1-Cas2, 20 mM Tris-HCl pH 8.0, BSA 100 (ug/ml), 7% glycerol, 37 C 30 min; 5% acrylamide TBE gel. The conditions noted are these: protein: recombinant; tags: Cas1 N-terminal His6; Cas2 untagged; chain copies: 4;2; label: 5'-Cy5 on strand 1; 14 bp duplex, 5' overhang 36 nt.

B1: DNA-3' (3' overhang) (mixed)
DNA 1: CGGACGAACAACGAACAATGCCAACTAAAGCTCAACCCAGGTGAAACTAA
DNA 2: TGTTCGTCCG
Regarding B1, in the data set with Cas1-Cas2 complex [1] (3' overhang 40 nt), the binding result was “binds”.

B2: DNA-10 (mixed)
DNA 1: AATCAAAGTGGACCCAACTCGAAATCAACCGTAACAAGCAACAAGCAGGC
DNA 2: GCCTGCTTGT
For the molecule B2, the binding result with Cas1-Cas2 complex [1] (5' overhang 40 nt) was “binds”.

B3: Duplex (dsDNA)
DNA 1: AATCAAAGTGGACCCAACTCGAAATCAACCGTAACAAGCAACAAGCAGGC
DNA 2: GCCTGCTTGTTGCTTGTTACGGTTGATTTCGAGTTGGGTCCACTTTGATT
Consider B3, for which the binding result in the data set with Cas1-Cas2 complex [2] was “no binding”.

B4: DNA-14 (mixed)
DNA 1: AATCAAAGTGGACCCAACTCGAAATCAACCGTAACAAGCAACAAGCAGGC
DNA 2: GCCTGCTTGTTGCT
For B4, the binding result in the data set with Cas1-Cas2 complex [3] is listed as “binds”.

The values above are taken from publication PMC6212769, “CRISPR–Cas adaptation in Escherichia coli requires RecBCD helicase but not nuclease activity, is independent of homologous recombination, and is antagonized by 5′ ssDNA exonucleases”.
